{"source": "the DeepSol protein solubility set", "data": [{"experiment": "soluble on expression in E. coli; label from the status in PepcDB or PDB records", "values": [{"sequence": "RVAHLLKKIHNSRPLLSMLKRMEMEPITPEIMLNKINASLSREVLTHHIVRKSLTYLEEHIPSLDSRFFTVVHGDVNHNNWLLSDRDELFLVDWEGAMIADPAIDIGMLLYNYVPQQQWSEWLETYGVQESLNLNKRMKWY", "soluble on expression in E. coli": "not soluble"}, {"sequence": "RWETHVYRAVKDLLVGLGFTEVLQLVLTSPRLVEAAGFSSMAVEVLNPVQQEYSVLRPTLLITLLQTLRENQHRRKPVKVFEAGNAVYLEDGEPRDEEKLALGVLDEEAGFEDVQAPLYAVLRIMGVDFEVEEASHPMFMEGRTAAVKVGGERLGYIGEVKPEVLEAFGLEYPVAAAEISLEVLARWTS", "soluble on expression in E. coli": "soluble"}, {"sequence": "RWITATDWASLPQTADTPALILFHGLEGGSASRYAQSIAHYFRARGWIVVIAHFRGCSGVPNRLARAYYSGDSAEVGFMLDTVRARIPHARWHAVGVSLGGNALLKYLGEHHDEASWLAAAAGVSVPLDLVAGGKALCTGFIARRIYTAYFLKTMRRKVLEKAKRFPGAIDVIRIAHARDLRDFDDAYTARMHGYRNALDYWTRASSKPWLAHIKTPTLVLNARNDPFLPESALPIPAECSDSVLLHQPAEGGHAGFPTGPFPAHLNWLPQRLG", "soluble on expression in E. coli": "not soluble"}, {"sequence": "RYISESGSDKVQFLISTNIGEPLRPLEKIVSGGELSRIMLSMKTVFVNKDKIPSVIFDEIDTGISGRIAERVADKMYAVSENHQVFCVTHLPQIACMSDTQFMV", "soluble on expression in E. coli": "not soluble"}, {"sequence": "RYLLQRKASEALEVEVVDTWQADAVRDTRTLSGGESFLVSLALALALSDLVSHKTRIDSLFLDEGFGTLDSETLDTALDALDALNASGKTIGVISHVEAMKERIPVQIKVKKINGLGYSKLESAFAMK", "soluble on expression in E. coli": "not soluble"}, {"sequence": "SAAGVDGDTAAAAAAGGGVVVVFDFDRTIIEWDSDDWVITKLGASDAFRRLRPTMRWNPLMDRMMVELHAQGRSADDIRDCLKSAPLDAHVLSAITTASALGCDLRVASDANAFFIETVLEHHGVLGCFSEISTNPARVDGNGRLRISPFHDPDDSSPHGCSLCPENMCKGKIIERIQATANGKRHFIYIGDGRGDYCPSLKLGEGDYVMPKEKYPLWNLISSNKQLLKAEVHPWNNGEELEQTLLKLVNKLITPPAQPSQFEYKCDMSNPVSTEVGQALRVPH", "soluble on expression in E. coli": "soluble"}, {"sequence": "SAANVAHGLQQNVLYVDSNGGLTASRLLQLLQAKTQDEEEQAEALRRIQVVHAFDIFQMLDVLQELRGTVAQQVTGSSGTVKVVVVDSVTAVVSPLLGGQQREGLALMMQLARELKTLARDLGMAVVVTNHITRDRDSGRLKPALGRSWSFVPSTRILLDTIEGAGASGGRRMACLAKSSRQPTGFQEMVDIGTWGTSEQSATLQGDQT", "soluble on expression in E. coli": "soluble"}, {"sequence": "SAELQEVQITEEKPLLPGQTPEAAKEAELAARILLDQGQTHSVETPYVSVTFTVYGTPKPKRPAILTYHDVGLNYKSCFQPLFQFEDMQEIIQNFVRVHVDAPGMEEGAPVFPLGYQYPSLDQLADMIPCVLQYLNFSTIIGVGVGAGAYILARYALNHPDTVEGLVLINIDPNAKGWMDWAAHKLTGLTSSIPEMILGHLFSQEELSGNSELIQKYRNIITHAPNLDNIELYWNSYNNRRDLNFERGGDITLRCPVMLVVECNSKLDPTQTSFLKMADSGGQPQLTQPGKLTEAFKYFLQGMGYMASSCMTRLSRSRTASLTSAASVDGNRSRSRTLSQSSESGTLSSGPPGHTMEVSC", "soluble on expression in E. coli": "not soluble"}, {"sequence": "SAESENVSNNISLYSEETVILDVKGKNKTDVIDEMIGILDKSGVLLDKKKFKEEILKREEISSTGFGMGIAIPHAKTDAVKVPRVAVGVSKEGFDFESEDGSLAHIIFMIAATDNGDNLHLKTLSQLSSKLMNEEFLNELLNSKTSREIVSKLNNEEIKSV", "soluble on expression in E. coli": "not soluble"}, {"sequence": "SAESSKLSATTVEAAPAMIKAKDVISPSEKEESDQTEITKVSVLKNLDEKEMIKEFADRLQRLEAKVDLLVTKADLLAIKADIQELLISAKGEKVPAMKTSAKASSESDDSYMDTSSEDESSSAEEPVNKPAASAAKPATKDSLFSAGFKPAAKDSLFSAGFKPDSLFSAGFEPAAKDSLFSAGFKPGSLFSAGFEPAAKDSLFSAGFKPDSLFSVGVKPAAKDSLFSVGVNGRSFSVTGFDASLPVDDIKSALSKYFSSFGEITRVFVPPSHGTGGSLGYAYIDLKEGAEKALELGRHDVGGWDLVVGKAEPIRSGSTWPFPGRCGNQGRCTFC", "soluble on expression in E. coli": "soluble"}, {"sequence": "SANLPTVLVTGASGRTGQIVYKKLKEGSDKFVAKGLVRSAQGKEKIGGEADVFIGDITDADSINPAFQGIDALVILTSAVPKMKPGFDPTKGGRPEFIFEDGQYPEQVDWIGQKNQIDAAKVAGVKHIVVVGSMGGTNPDHPLNKLGNGNILVWKRKAEQYLADSGTPYTIIRAGGLLDKEGGVRELLVGKDDELLQTDTKTVPRADVAEVCIQALLFEEAKNKAFDLGSKPEGTSTPTKDFKALFSQVTSRF", "soluble on expression in E. coli": "soluble"}, {"sequence": "SAQAQRVQDAIQHWESHHPKEVAARSTRLAELKQALAEQGAVVRTLQPKVTTTSPQAMLKQAMPALQKMETYACTDGLTFVGKHSSHRRQVEERLDSFGGSQSRKAANKQANDMSNMAAIAAKRGNVSLNQLKSIAACVAQAQAGCCTTFAYSAAAELMKHNQDNQQRIEVVAHRGAKGHSQTHCFVVVGRDPNSELSKPETWGKQAHVIDPWAATIGGRLQGTPSNPPIANLWPPTESV", "soluble on expression in E. coli": "not soluble"}, {"sequence": "SATTIGPNTCSIDDYKPYCCQSMSGSASLGCVVGVIGSQCGASVKCCKDDVTNTGNSFLIINAANCVA", "soluble on expression in E. coli": "soluble"}, {"sequence": "SCTLGRLVSPGPCPRPYLVITEQPKQRGMRFRYECEGRSAGSILGESSTEASKTQPAIELRDCGGLREVEVTACLVWKDWPHRVHPHSLVGKDCTDGVCRVRLRPHVSPRHSFNNLGIQCVRKKEIEAAIERKIQLGIDPYNAGSLKNHQEVDMNVVRICFQASYRDQQGHLHRMDPILSEPVYDKKSTNTSELRICRINKESGPCTGGEELYLLCDKVQKEDISVVFSTASWEGRADFSQADVHRQIAIVFKTPPYEDLEISEPVTVNVFLQRLTDGVCSEPLPFTYLPRDHDSY", "soluble on expression in E. coli": "soluble"}, {"sequence": "SDDKAFTKELDQWVEQLNECKQLNENQVRTLCEKAKEILTKESNVQEVRCPVTVCGDVHGQFHDLMELFRIGGKSPDTNYLFMGDYVDRGYYSVETVTLLVALKVRYPERITILRGNHESRQITQVYGFYDECLRKYGNANVWKYFTDLFDYLPLTALVDGQIFCLHGGLSPSIDTLDHISPRGAGYTFGQDISETFNHANGLTLVSRAHQLVMEGYNWCHDRNVVTIFSAPNYCYRCGNQAAIMELDDTLKYSFLQFDPAPRRGEPHVTRRTPDYFL", "soluble on expression in E. coli": "soluble"}, {"sequence": "SDPATCPIIPGCETTIEISKGRTGLGLSIVGGSDTLLGAIIIHEVYEEGAACKDGRLWAGDQILEVNGIDLRKATHDEAINVLRQTPQRVRLTLYRDEAPYKEEEVCDTLTIELQKKPGKGLGLSIVGKRNDTGVFVSDIVKGGIADADGRLMQGDQILMVNGEDVRNATQEAVAALLKCSLGTVTLEVGRIKAGPFHSERRPSQSSQVSEGSLSSFTFPLSGSSTSESLESSSKKNALASEIQGLRTVEMKKGPTDSLGISIAGGVGSPLGDVPIFIAMMHPTGVAAQTQKLRVGDRIVTICGTSTEGMTHTQAVNLLKNASGSIEMQVVAGGDVSVVTGHQQEPASSSLSFTGLTSSSIFQDDLGPPQCKSITLERGPDGLGFSIVGGYGSPHGDLPIYVKTVFAKGAASEDGRLKRGDQIIAVNGQSLEGVTHEEAVAILKRTKGTVTLMVLS", "soluble on expression in E. coli": "soluble"}, {"sequence": "SDRLIDKMAGEERQKIELWAQATKIVASDDEAVLAKDLVLQIIQSNNSIPVILCDPKDSIISYNNIDIPAGKPALPYLQKKLRYFKEGYPPIRIEIEARRPQFLYYSDSQTLRR", "soluble on expression in E. coli": "not soluble"}, {"sequence": "SDSAFANLDAAGFLQIWQHFDADDNGYIEGKELDDFFRHMLKKLQPKDKITDERVQQIKKSFMSAYDATFDGRLQIEELANMILPQEENFLLIFRREAPLDNSVEFMKIWRKYDADSSGYISAAELKNFLKDLFLQHKKKIPPNKLDEYTDAMMKIFDKNKDGRLDLNDLARILALQENFLLQFKMDASSQVERKRDFEKIFAHYDVSRTGALEGPEVDGFVKDMMELVRPSISGGDLDKFRECLLTHCDMNKDGKIQKSELALCLGLKHKP", "soluble on expression in E. coli": "soluble"}, {"sequence": "SEEYDTNFYKKLFDAMFVNEDELKEMGKDPKEYMENLLKEAEEKSLKEKMELYKKYNVIEIDSLEDEYQSTAEGYGNLEDVKKFIQKYDINGVYDGYTLLYTYSGYRGETNIIEFLIENNADIYKKSINGKTPLYSAVDDYFYDAAEVILKHYKDNDDINDEFLLAVNNENEPMLRILLKKKFLFFGNKFKMNLDKGLEIALDKGNKDIAAELVLSGAKTDNFLYYFK", "soluble on expression in E. coli": "not soluble"}]}]}
